Biological target: T1, recombinant murine Factor H (murine, UniProt P06909 19-1234)
T1 construct: murine complement Factor H, residues 19-1234 of UniProt P06909; also called FH; source: CHO cells, transfected, purified from the supernatant (HiTrap His column)
Experiment: ELISA; Figure 1A-B: by the legend varying concentrations of Factor H immobilised on the plate, a fixed concentration of rA2 or of an annexin A2 fragment added, bound annexin A2 detected with an antibody (the methods tell the reverse: 800 ng rA2 adsorbed, Factor H 20 μg/ml in TBS with 2 mM Ca, 3 h, room temperature)
Conditions: both partners purified

T1 sequence (P06909 19-1234): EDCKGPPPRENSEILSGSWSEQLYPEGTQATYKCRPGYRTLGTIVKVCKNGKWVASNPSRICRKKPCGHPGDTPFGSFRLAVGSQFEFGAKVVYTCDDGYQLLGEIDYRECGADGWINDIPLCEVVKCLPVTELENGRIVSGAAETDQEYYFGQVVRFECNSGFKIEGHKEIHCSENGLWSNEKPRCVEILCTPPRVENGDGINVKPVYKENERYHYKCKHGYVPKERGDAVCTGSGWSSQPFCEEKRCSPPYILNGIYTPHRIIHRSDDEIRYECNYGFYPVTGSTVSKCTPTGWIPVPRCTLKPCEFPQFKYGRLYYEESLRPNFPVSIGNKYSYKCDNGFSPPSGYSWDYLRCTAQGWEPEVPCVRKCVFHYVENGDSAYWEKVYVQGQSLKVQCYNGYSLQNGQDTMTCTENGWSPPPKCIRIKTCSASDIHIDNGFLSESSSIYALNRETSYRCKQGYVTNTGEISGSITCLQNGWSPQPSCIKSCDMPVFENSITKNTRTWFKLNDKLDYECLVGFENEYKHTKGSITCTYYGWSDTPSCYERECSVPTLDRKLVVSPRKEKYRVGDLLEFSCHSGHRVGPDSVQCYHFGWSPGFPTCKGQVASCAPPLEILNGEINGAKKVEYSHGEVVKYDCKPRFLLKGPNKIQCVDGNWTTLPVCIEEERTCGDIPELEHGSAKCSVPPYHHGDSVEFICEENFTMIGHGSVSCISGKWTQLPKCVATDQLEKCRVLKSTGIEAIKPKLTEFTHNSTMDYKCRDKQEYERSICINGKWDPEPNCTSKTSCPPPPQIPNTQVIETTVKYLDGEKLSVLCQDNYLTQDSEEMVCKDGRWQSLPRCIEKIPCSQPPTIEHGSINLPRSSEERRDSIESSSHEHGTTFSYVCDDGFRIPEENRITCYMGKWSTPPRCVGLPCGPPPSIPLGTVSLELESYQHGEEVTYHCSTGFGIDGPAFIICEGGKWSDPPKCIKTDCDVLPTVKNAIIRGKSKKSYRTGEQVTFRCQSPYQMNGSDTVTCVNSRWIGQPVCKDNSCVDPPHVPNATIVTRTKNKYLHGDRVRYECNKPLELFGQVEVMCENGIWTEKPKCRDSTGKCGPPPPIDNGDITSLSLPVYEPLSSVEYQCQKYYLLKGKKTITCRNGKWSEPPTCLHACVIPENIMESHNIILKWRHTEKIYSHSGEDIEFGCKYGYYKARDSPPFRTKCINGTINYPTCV

B1: recombinant annexin A2 (natural protein, mouse, UniProt P07356 1-339, looked up)
chain: MSTVHEILCKLSLEGDHSTPPSAYGSVKPYTNFDAERDALNIETAVKTKGVDEVTIVNILTNRSNVQRQDIAFAYQRRTKKELPSALKSALSGHLETVILGLLKTPAQYDASELKASMKGLGTDEDSLIEIICSRTNQELQEINRVYKEMYKTDLEKDIISDTSGDFRKLMVALAKGRRAEDGSVIDYELIDQDARELYDAGVKRKGTDVPKWISIMTERSVCHLQKVFERYKSYSPYDMLESIKKEVKGDLENAFLNLVQCIQNKPLYFADRLYDSMKGKGTRDKVLIRIMVSRSEVDMLKIRSEFKRKYGKSLYYYIQQDTKGDYQKALLYLCGGDD
notes: annexin A2, mouse; cDNA reverse transcribed from total mRNA of a C57BL/6 mouse kidney; also called rA2; AnxA2; source: CHO cells, transfected, purified from the supernatant (HiTrap His column)
  binding result: binds
